In patent US20040091878:

Experiments:
Experiment in all cases: EMSA
[1] = system: Clone 7 ZFP (6-finger) (artificial); conditions: probe flanks not given; Table 5 prints TAGGTGGCATTGGGTGCTC, listing SEQ 67 tacgtggcattgggtgctc
[2] = system: Clone 6 ZFP (6-finger) (artificial); conditions: probe flanks not given; 0.1 mM ZnCl2
[3] = system: Clone 5 ZFP (BCTV whole L1, 6-finger) (artificial); conditions: probe 0.03 fmol per 10 ul; vast majority bound at 3 pM; 0.1 mM ZnCl2

TACGTGGCATTGGGTGCTC (double strand) [Clone 7 target]
Kd [1]: < 3 pM

AGTAAGGTAGGAGATGATA (double strand) [Clone 6 target]
Kd [2]: < 3 pM

TATATATATTGGGTGCTTTGGGTGCTCTATATATA (double strand) [BCTV whole L1 probe]
Kd [3]: < 3 pM
